Laboratory results published in patent publication US20210284749A1 (ABL BIO, published 2021).

Legend:
human BCMA-Fc/His (1-51) = molecular target: T1, human BCMA-Fc/His (1-51) (human, UniProt Q02223 1-51); assay: BLI (Octet), antigen on Ni-NTA biosensor, IgG in solution
T1 construct: also called recombinant human BCMA-Fc/His; recombinant human BCMA-His (Sino Biological Inc.); not shown: Fc region; C-terminal His tag
T1 sequence: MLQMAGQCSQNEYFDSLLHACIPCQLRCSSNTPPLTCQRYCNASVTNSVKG
Description: A 96-well black microplate was mounted on a Biosensor tray case, 200 μl of 1XKB was added to each of the 8 wells, and then 8 Ni-NTA biosensors (Fortebio) were inserted thereto for hydration for 10 minutes. For antigen fixation, 5 μg/ml of recombinant human BCMA-His (Sino Biological Inc.) was diluted using 1XKB. Experiments were performed with a threshold of 0.5 to 1.0 nm, and Octet Data Acquisition 9.0 software was activated to create an Octet program template. The first step was for Baseline 1, the second step was for loading, and the threshold was fixed to 0.5 to 1.0 nm. In the third step, which was for Baseline 2, association for 5 minutes and dissociation for 20 minutes were performed. A plate temperature was fixed to 30° C., and the prepared buffer solution was placed in order into a new 96-well black microplate according to the Octet program template. 200 μl of 1XKB used as Baseline 1 and recombinant human BCMA-Fc/His which is an antigen to be loaded were diluted to 5 μg/ml, and 200 μl of the dilution was added thereto. After adding 200 μl of 1XKB used as Baseline 2, 200 μl of the antibody to be reacted with the antigen was dispensed, and the instrument was operated. After completion of the experiment, an association constant (kon), a dissociation constant (kdis), and an equilibrium dissociation constant (KD) for each antibody were analyzed and calculated with Octet Analysis 9.0 software.

[1] = molecular target: T2, recombinant human BCMA (ELISA antigen, construct not specified) (human, UniProt Q02223 1-54); assay: ELISA on coated recombinant human BCMA, antibody titrated, HRP anti-Fab detection, absorbance 450 nm
T2 construct: Fc 1-51; Fc/His 1-51; Fc 4-48) was coated in these ELISAs; also called recombinant BCMA; recombinant protein
T2 sequence: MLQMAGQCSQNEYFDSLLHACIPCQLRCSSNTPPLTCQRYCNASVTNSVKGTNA
Description: Specific binding abilities of the anti-BCMA IgG antibodies isolated in Example 1.4 to recombinant BCMA protein were analyzed by ELISA.
Using recombinant human BCMA or monkey BCMA as an antigen, and HRP-conjugated Fab polychronal antibody reagent (Pierce, 31414) as a secondary antibody, ELISA was performed as described in Example 1.3.

[2] = molecular target: T2, recombinant human BCMA (ELISA antigen, …); assay: ELISA on recombinant BCMA
[3] = molecular target: T3, human BCMA expressed on cell surface (H929, OPM-2, CHOK1-hBCMA cells) (human, UniProt Q02223 1-184); assay: FACS on H929 cells
T3 construct: also called cell-surface BCMA; BCMA on cell surface
T3 sequence: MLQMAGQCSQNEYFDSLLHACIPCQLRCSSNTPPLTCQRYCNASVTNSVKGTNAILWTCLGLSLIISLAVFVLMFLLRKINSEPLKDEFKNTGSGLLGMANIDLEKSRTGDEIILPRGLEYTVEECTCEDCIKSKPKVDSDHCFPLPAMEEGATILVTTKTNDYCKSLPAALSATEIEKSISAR

[4] = molecular target: T4, human monomeric BCMA antigen (human, UniProt Q02223 5-54, limits assumed); assay: SPR (Biacore T200), antibody captured on protein A chip, antigen 6.25-100 nM
T4 construct: also called recombinant human BCMA antigens
T4 chain: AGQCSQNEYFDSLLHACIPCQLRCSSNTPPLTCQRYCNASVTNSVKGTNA
Description: In particular, the prepared antibodies were diluted with a 1×HPS-EP buffer (GE Healthcare, BR-1006-69). The target antigen-binding affinity analysis was performed using a Biacore T200 (GE Healthcare). The antibodies were flowed onto a protein A chip at a contact time of 60 seconds, a stabilization time of 30 seconds, and a flow rate of 30 μl/min until a capture level reached 128 RU (Response Unit), thereby preparing an antibody-captured protein A chip.
The antigen was sequentially diluted with a 1×HPS-EP buffer, by 2-fold each time, from 100 nM to 6.25 nM, thereby preparing a total of […] samples. The 1×HPS-EP buffer was used as a negative control group (blank).
The prepared antigen was flowed across the antibody-captured protein A chip at a flow rate of 30 μl/min for an association time of 60 seconds, followed by a disassociation phase for 180 seconds. Regeneration was performed with a 10-mM Glycine-HCL (pH 1.5) buffer (GE Healthcare, BR-1003-54) at a flow rate of 30 μl/min for a contact time of 30 seconds.

B1: anti-BCMA IgG antibody 2C6 (antibody, V domains shown)
VH: EVQLLESGGGLVQPGGSLRLSCAASGFTFSNYGMSWVRQAPGKGLEWVSSIDYNGSTYYNPSLKSRFTISRDNSKNTLYLQMNSLRAEDTAVYYCAKEHGLFDSWGQGTLVTVSS
VL: EIVLTQSPGTLSLSPGERATLSCRVSQSISSYLNWYQQKPGQAPRLLIYDASTRAIGIPDRFSGSGSGTDFTLTISRLEPEDFAVYYCQQVNSYPITFGQGTKVEIKR
Question: Which Kd (human BCMA-Fc/His (1-51)) does the source give for B1 here?
Answer: 0.37 nM

Question: What about the koff (human BCMA-Fc/His (1-51)) of the same binder?
Answer: 0.000403 s⁻¹

Question: And the kon (human BCMA-Fc/His (1-51))?
Answer: 1.09e+06 M⁻¹ s⁻¹

Question: And the “EC50 (read off the curve)” value [1]?
Answer: ~0.05 µg/mL

B2: mutant antibody 5A6 LM6 (antibody, V domains shown)
VH: EVQLLESGGGLVQPGGSLRLSCAASGFTFSNYGVHWVRQAPGKGLEWVSYISYSGGTYYNPSLKSRFTISRDNSKNTLYLQMNSLRAEDTAVYYCARDSDDFGFDYWGQGTLVTVSS
VL: QSVLTQPPSASGTPGQRVTISCQGESLRSYYVNWYQQLPGTAPKLLIYDHSKRPTGVPDRFSGSKSGTSASLAISGLRSEDEADYYCQSYDASTVVFGGGTKLTVLG
notes: Light chain CDR mutant of 5A6 (IgG1); heavy chain as 5A6
Question: How did the EC50 [2] turn out when B2 was run?
Answer: 0.0537 nM

Question: What about the MFI [3] of the same binder?
Answer: 78.9

Question: What about the Kd [4] of the same binder?
Answer: 18.1 nM

Question: And the koff [4]?
Answer: 0.00922 s⁻¹

Question: And the kon [4]?
Answer: 509000 M⁻¹ s⁻¹

B3: mutant antibody 5A6 LM3 (antibody, V domains shown)
VH: EVQLLESGGGLVQPGGSLRLSCAASGFTFSNYGVHWVRQAPGKGLEWVSYISYSGGTYYNPSLKSRFTISRDNSKNTLYLQMNSLRAEDTAVYYCARDSDDFGFDYWGQGTLVTVSS
VL: QSVLTQPPSASGTPGQRVTISCQGDSLRSYYVNWYQQLPGTAPKLLIYDHSKRPTGVPDRFSGSKSGTSASLAISGLRSEDEADYYCQSYESSTVVFGGGTKLTVLG
notes: as for B2
Question: What does the source list for B3?
Answer: EC50 [2]: 0.133 nM; MFI [3]: 84.6

B4: mutant antibody 5A6 LM2 (antibody, V domains shown)
VH: EVQLLESGGGLVQPGGSLRLSCAASGFTFSNYGVHWVRQAPGKGLEWVSYISYSGGTYYNPSLKSRFTISRDNSKNTLYLQMNSLRAEDTAVYYCARDSDDFGFDYWGQGTLVTVSS
VL: QSVLTQPPSASGTPGQRVTISCQGDALRSYYVNWYQQLPGTAPKLLIYDHSKRPTGVPDRFSGSKSGTSASLAISGLRSEDEADYYCQSYDSSTVVFGGGTKLTVLG
notes: as for B2
Question: Which results are given for B4?
Answer: EC50 [2]: 0.0509 nM; MFI [3]: 66.7

B5: mutant antibody 5A6 LM1 (antibody, V domains shown)
VH: EVQLLESGGGLVQPGGSLRLSCAASGFTFSNYGVHWVRQAPGKGLEWVSYISYSGGTYYNPSLKSRFTISRDNSKNTLYLQMNSLRAEDTAVYYCARDSDDFGFDYWGQGTLVTVSS
VL: QSVLTQPPSASGTPGQRVTISCQGESLRSYYVNWYQQLPGTAPKLLIYDHSKRPTGVPDRFSGSKSGTSASLAISGLRSEDEADYYCQSYDSSTVVFGGGTKLTVLG
notes: as for B2
Question: What does the source list for B5?
Answer: EC50 [2]: 0.0818 nM; MFI [3]: 83.4

B6: mutant antibody 5A6 LM5 (antibody, V domains shown)
VH: EVQLLESGGGLVQPGGSLRLSCAASGFTFSNYGVHWVRQAPGKGLEWVSYISYSGGTYYNPSLKSRFTISRDNSKNTLYLQMNSLRAEDTAVYYCARDSDDFGFDYWGQGTLVTVSS
VL: QSVLTQPPSASGTPGQRVTISCQGESLRSYYVNWYQQLPGTAPKLLIYDHSKRPTGVPDRFSGSKSGTSASLAISGLRSEDEADYYCQSYESSTVVFGGGTKLTVLG
notes: as for B2
Question: Which results are given for B6?
Answer: EC50 [2]: 0.103 nM; MFI [3]: 81.4

B7: mutant antibody 5A6 LM4 (antibody, V domains shown)
VH: EVQLLESGGGLVQPGGSLRLSCAASGFTFSNYGVHWVRQAPGKGLEWVSYISYSGGTYYNPSLKSRFTISRDNSKNTLYLQMNSLRAEDTAVYYCARDSDDFGFDYWGQGTLVTVSS
VL: QSVLTQPPSASGTPGQRVTISCQGDSLRSYYVNWYQQLPGTAPKLLIYDHSKRPTGVPDRFSGSKSGTSASLAISGLRSEDEADYYCQSYDASTVVFGGGTKLTVLG
notes: as for B2
Question: With B7 as the binder, how does the EC50 [2] read?
Answer: 0.0823 nM

Question: And the MFI [3]?
Answer: 77.1

B8: mutant antibody 5A6 LM7 (antibody, V domains shown)
VH: EVQLLESGGGLVQPGGSLRLSCAASGFTFSNYGVHWVRQAPGKGLEWVSYISYSGGTYYNPSLKSRFTISRDNSKNTLYLQMNSLRAEDTAVYYCARDSDDFGFDYWGQGTLVTVSS
VL: QSVLTQPPSASGTPGQRVTISCQGDALRSYYVNWYQQLPGTAPKLLIYDHSKRPTGVPDRFSGSKSGTSASLAISGLRSEDEADYYCQSYESSTVVFGGGTKLTVLG
notes: as for B2
Question: Which results are given for B8?
Answer: EC50 [2]: 0.105 nM; MFI [3]: 71.1

B9: mutant antibody 5A6 LM8 (antibody, V domains shown)
VH: EVQLLESGGGLVQPGGSLRLSCAASGFTFSNYGVHWVRQAPGKGLEWVSYISYSGGTYYNPSLKSRFTISRDNSKNTLYLQMNSLRAEDTAVYYCARDSDDFGFDYWGQGTLVTVSS
VL: QSVLTQPPSASGTPGQRVTISCQGDALRSYYVNWYQQLPGTAPKLLIYDHSKRPTGVPDRFSGSKSGTSASLAISGLRSEDEADYYCQSYDASTVVFGGGTKLTVLG
notes: as for B2
Question: Which EC50 [2] does the source give for B9 here?
Answer: 0.068 nM

Question: And the MFI [3]?
Answer: 68.6

B10: mutant antibody 5D5 LM4 (antibody, V domains shown)
VH: EVQLLESGGGLVQPGGSLRLSCAASGFTFSDYGLSWVRQAPGKGLEWVSLIDSSGSSTFYADSVKGRFTISRDNSKNTLYLQMNSLRAEDTAVYYCAKEHGLFDSWGQGTLVTVSS
VL: EIVLTQSPGTLSLSPGERATLSCKASQDIDDAINWYQQKPGQAPRLLIYDASLRATGIPDRFSGSGSGTDFTLTISRLEPEDFAVYYCQQSLRTPITFGQGTKLEIKR
notes: Light chain CDR mutant of 5D5 (IgG1); heavy chain as 5D5
Question: What does the source list for B10?
Answer: EC50 [2]: 0.0708 nM; MFI [3]: 62.3; Kd [4]: 14.2 nM; koff [4]: 0.0594 s⁻¹; kon [4]: 4.17e+06 M⁻¹ s⁻¹

B11: mutant antibody 5D5 LM5 (antibody, V domains shown)
VH: EVQLLESGGGLVQPGGSLRLSCAASGFTFSDYGLSWVRQAPGKGLEWVSLIDSSGSSTFYADSVKGRFTISRDNSKNTLYLQMNSLRAEDTAVYYCAKEHGLFDSWGQGTLVTVSS
VL: EIVLTQSPGTLSLSPGERATLSCKASQDIDDEINWYQQKPGQAPRLLIYDASLRATGIPDRFSGSGSGTDFTLTISRLEPEDFAVYYCQQSLRTPITFGQGTKLEIKR
notes: as for B10
Question: B11 was tested. Which EC50 [2] did it give?
Answer: 0.0763 nM

Question: What about the MFI [3] of the same binder?
Answer: 73.6

B12: mutant antibody 5D5 LM3 (antibody, V domains shown)
VH: EVQLLESGGGLVQPGGSLRLSCAASGFTFSDYGLSWVRQAPGKGLEWVSLIDSSGSSTFYADSVKGRFTISRDNSKNTLYLQMNSLRAEDTAVYYCAKEHGLFDSWGQGTLVTVSS
VL: EIVLTQSPGTLSLSPGERATLSCKASQDIDADINWYQQKPGQAPRLLIYDASLRATGIPDRFSGSGSGTDFTLTISRLEPEDFAVYYCQQSLRTPITFGQGTKLEIKR
notes: as for B10
Question: What does the source list for B12?
Answer: EC50 [2]: 0.0593 nM; MFI [3]: 31.5

B13: mutant antibody 5D5 LM1 (antibody, V domains shown)
VH: EVQLLESGGGLVQPGGSLRLSCAASGFTFSDYGLSWVRQAPGKGLEWVSLIDSSGSSTFYADSVKGRFTISRDNSKNTLYLQMNSLRAEDTAVYYCAKEHGLFDSWGQGTLVTVSS
VL: EIVLTQSPGTLSLSPGERATLSCKASQDIDNDINWYQQKPGQAPRLLIYDASLRATGIPDRFSGSGSGTDFTLTISRLEPEDFAVYYCQQSLRTPITFGQGTKLEIKR
notes: as for B10
Question: What does the source list for B13?
Answer: EC50 [2]: 0.0939 nM; MFI [3]: 32

B14: mutant antibody 5D5 LM2 (antibody, V domains shown)
VH: EVQLLESGGGLVQPGGSLRLSCAASGFTFSDYGLSWVRQAPGKGLEWVSLIDSSGSSTFYADSVKGRFTISRDNSKNTLYLQMNSLRAEDTAVYYCAKEHGLFDSWGQGTLVTVSS
VL: EIVLTQSPGTLSLSPGERATLSCKASQDIDEDINWYQQKPGQAPRLLIYDASLRATGIPDRFSGSGSGTDFTLTISRLEPEDFAVYYCQQSLRTPITFGQGTKLEIKR
notes: as for B10
Question: With B14 as the binder, how does the EC50 [2] read?
Answer: 0.0858 nM

Question: What about the MFI [3] of the same binder?
Answer: 29
